According to the supplement of paper PMC9732359:
± gives the uncertainty stated by the source.

Assay: protein stability index of a GFP-peptide fusion (yeast GPS) (PSI 1-4); higher = more stable; sorted into four equal gates, so the index is relative within each strain
In short: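 Peptides tiling yeast proteins in 17-residue segments were fused downstream of GFP, with Cherry expressed from the same plasmid. As a pooled library in yeast, mid-log cultures grown in leucine-free medium were sorted into four equal gates by GFP/Cherry fluorescence ratio. Gate plasmids were PCR-amplified and Illumina-sequenced, and barcodes linked reads to strains. Each peptide received a protein stability index equal to the sum of each gate's read frequency times its gate number.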

Sequence | protein stability index (doa10∆) | protein stability index (pdr5∆) | protein stability index (san1∆) | protein stability index (ubr1∆)
GNVLLNATVVDSFKYEP [YLR335W/NUP2] | 2.92 ± 0.074 | 3.02 ± 0.1 | 3.05 ± 0.081 | 2.62 ± 0.17
EASSLGYLDDSEILIIS [IRR1] | 2.1 ± 0.048 | 1.85 ± 0.037 | 1.91 ± 0.1 | 1.87 ± 0.036
VVFAVEKLITSKLLVPQ [PRE10] | 2.03 ± 0.14 | 2.81 ± 0.18 | 2.33 ± 0.13 | 2.66 ± 0.05
EASTVPWGDYLQLETPA [BRR2] | 1.42 ± 0.066 | 2.13 ± 0.16 | 2.58 ± 0.14 | 1.53 ± 0.098
FQTIFSKQDLIHSLIPV [SIN4] | 1.93 ± 0.046 | 1.9 ± 0.064 | 1.66 ± 0.11 | 1.7 ± 0.05
LLGKESFKKIIKFLLTF [YCS4] | 1.45 ± 0.063 | 1.57 ± 0.11 | 1.18 ± 0.16 | 1.65 ± 0.06
LAFYQVTPEEDEEEDEE [RPL22A] | 3.14 ± 0.1 | 3.45 ± 0.12 | 3.61 ± 0.06 | 3.38 ± 0.11
MMVSYPKIDEDDTWYNL [AAR2] | 3.29 ± 0.063 | 3.34 ± 0.06 | 3.25 ± 0.048 | 3.35 ± 0.045
IAKSQDKKSCSVDDVLS [DPB4] | 3.28 ± 0.057 | 3.15 ± 0.077 | 3.22 ± 0.055 | 3.16 ± 0.039
IGAGVPSLEVASEYIET [FAS1] | 3.38 ± 0.15 | 3.12 ± 0.18 | 2.18 ± 0.23 | 
VPTLEAKRDYIISRLNA [FAS1] | 3.13 ± 0.087 | 3.35 ± 0.16 | 3.05 ± 0.076 | 3.25 ± 0.071
RFSYSPPKEGNYEIVFD [YMR129W/POM152] | 3.05 ± 0.29 | 3.24 ± 0.18 | 3.13 ± 0.071 | 3.45 ± 0.16
NTPLSLPTRGTLESLEN [COR1] | 3.21 ± 0.12 | 2.37 ± 0.08 | 2.6 ± 0.27 | 2.41 ± 0.065
AKNETNSESDSKSDSDS [ITC1] | 3.01 ± 0.05 | 3.03 ± 0.049 | 3.09 ± 0.047 | 2.88 ± 0.042
LLNINGSRKVAGILRGY [SMX2] | 2.64 ± 0.14 | 1.67 ± 0.12 | 2.25 ± 0.14 | 1.52 ± 0.14
HNQSPRNTYQSAMGKQA [RPB2] | 2.48 ± 0.063 | 2.77 ± 0.062 | 2.37 ± 0.06 | 2.25 ± 0.039
MSDLFTFDWFIKTRTVH [ISW2] | 2.88 ± 0.099 | 3.17 ± 0.099 | 2.76 ± 0.093 | 3.21 ± 0.072
KKEANLFPEQQNKEIKA [RPL6A] | 3.38 ± 0.12 | 3.43 ± 0.088 | 3.21 ± 0.076 | 3.3 ± 0.093
TLVSTDNYFNLQLNEAE [SMX3] | 2.94 ± 0.069 | 2.91 ± 0.059 | 2.82 ± 0.053 | 2.79 ± 0.048
NSSTSPAPSIPSTGFKF [YLR335W/NUP2] | 2.38 ± 0.04 | 2.5 ± 0.036 | 2.48 ± 0.043 | 2.21 ± 0.028
ALDIVCSDFVKILNLEK [NUT1] | 2.7 ± 0.069 | 2.7 ± 0.07 | 2.35 ± 0.11 | 2.29 ± 0.099
YATKRQEAIQQNRRLAF [PRP8] | 2.43 ± 0.11 | 2.43 ± 0.12 | 2.62 ± 0.25 | 2.61 ± 0.067
MDSKGKITIGIQRTTES [RGR1] | 3.44 ± 0.075 | 3.39 ± 0.066 | 3.33 ± 0.083 | 3.11 ± 0.075
TDNVSMYPSPTGVMIGI [PRP8] | 2.65 ± 0.065 | 2.41 ± 0.063 | 2.02 ± 0.086 | 2.3 ± 0.041
MLETAGFSMNNPYNIVP [SMC3] | 3.17 ± 0.11 | 3.18 ± 0.09 | 3.19 ± 0.07 | 3.09 ± 0.051
KTWEKVTLDFGNIFADL [SMC2] | 2.81 ± 0.099 | 2.92 ± 0.12 | 3.39 ± 0.1 | 3.12 ± 0.13

Sequence | protein stability index (doa10∆) | protein stability index (pdr5∆) | protein stability index (san1∆) | protein stability index (ubr1∆)
AYRTDVIQALGGIETIL [PRP8] | 1.44 ± 0.073 | 1.54 ± 0.066 | 1.46 ± 0.13 | 1.45 ± 0.054
IHTQLSEIKQQINKAQI [YJL039C/NUP192] | 2.73 ± 0.12 | 2.8 ± 0.18 | 2.81 ± 0.13 | 3.12 ± 0.2
IKDTANDNDITVKENES [UBP6] | 2.88 ± 0.1 | 2.45 ± 0.071 | 1.85 ± 0.075 | 1.41 ± 0.047
HDEKSDSLNEWIKFDQE [RPN7] | 3.19 ± 0.13 | 3.29 ± 0.22 | 3.27 ± 0.076 | 3.21 ± 0.072
GSKIRVMWGKVTRTHGN [RPL33A] | 3.09 ± 0.075 | 2.9 ± 0.076 | 2.76 ± 0.062 | 2.78 ± 0.054
RCWKANIPWDVPGMPAP [PRP8] | 2.15 ± 0.081 | 1.5 ± 0.077 | 1.28 ± 0.12 | 2.73 ± 0.18
AQRLQISDYQQLESIYF [SWI1] | 2.38 ± 0.05 | 1.95 ± 0.027 | 2.58 ± 0.043 | 2.76 ± 0.046
CEAAVEISKKDFVRKGG [SIR3] | 3.19 ± 0.11 | 2.9 ± 0.065 | 3.22 ± 0.068 | 3.25 ± 0.064
QLLEKAPIPIREDIDDP [BRR2] | 2.64 ± 0.064 | 2.55 ± 0.066 | 2.37 ± 0.088 | 1.92 ± 0.058
IRKLLEKINRMIIFLKN [CSI1] | 1.81 ± 0.079 | 1.5 ± 0.063 | 1.31 ± 0.11 | 1.19 ± 0.041
HYDNTTRNSLGNVIQFI [RPO21] | 2.45 ± 0.04 | 2.62 ± 0.043 | 2.87 ± 0.034 | 2.86 ± 0.03
DTKNLYVIKALQSLTSK [RPS10A] | 1.75 ± 0.077 | 1.95 ± 0.077 | 1.3 ± 0.16 | 1.34 ± 0.078
TGHPKGAAGAWMMNGAL [FAS2] | 1.98 ± 0.069 | 1.5 ± 0.052 | 1.43 ± 0.12 | 1.66 ± 0.052
ENDLSFALMRYYDRKEE [RRI2] | 3.12 ± 0.13 | 2.88 ± 0.12 | 2.97 ± 0.071 | 2.98 ± 0.073
GNMGITTEMLDKLMVTS [MED6] | 3.36 ± 0.1 | 3.55 ± 0.1 | 3.26 ± 0.068 | 3.07 ± 0.11
SIPNLFPTDLEIFQLFT [SWI1] | 2.6 ± 0.14 | 2.22 ± 0.12 | 2.27 ± 0.12 | 3.09 ± 0.19
LIRRLVRVGVLSEDKKK [RPS9A] | 1.7 ± 0.24 | 1.45 ± 0.29 |  | 1.12 ± 0.18
FGFSSSGTAATGAASNQ [YOR098C/NUP1] | 2.69 ± 0.11 | 3.41 ± 0.13 |  | 3.31 ± 0.07
LDNKGSGEDAEEELWNS [YIL149C/MLP2] | 3.31 ± 0.17 | 2.92 ± 0.14 | 3.16 ± 0.093 | 3.22 ± 0.1
LAIKDSKKRFAAIWTLC [RPO21] | 1.9 ± 0.045 | 1.92 ± 0.045 | 1.8 ± 0.072 | 2.1 ± 0.036
IKTRTVHELSKRVHTLL [ISW2] | 1.37 ± 0.091 | 1.49 ± 0.072 | 2.18 ± 0.17 | 1.49 ± 0.049
GTCNGDITTSIMDNFLE [RPN1] | 2.77 ± 0.054 | 2.85 ± 0.057 | 2.86 ± 0.056 | 2.82 ± 0.068
IIVKDKSNDSEGDFLKS [POP1] | 3.06 ± 0.3 |  | 3.14 ± 0.11 | 
TSFEQGEITFDGIGGLT [RPT4] | 3.1 ± 0.085 | 3.18 ± 0.074 | 3.05 ± 0.066 | 3.49 ± 0.059
MDMNEIEDKENSESTTQ [RPT5] | 3.04 ± 0.15 | 3.25 ± 0.12 | 3.16 ± 0.12 | 3.21 ± 0.098
LFWKVKEEEGSFNNVIG [PRE2] | 3.13 ± 0.12 | 3.39 ± 0.11 | 3.21 ± 0.071 | 3.2 ± 0.11
